Assay [1] has as its target bovine complement factor I. In words: BLI. As to conditions: 1600 nM PmSLP-1 mutant; biotinylated bovine FI on streptavidin sensors; 3 independent replicates; read off a plot.
In assay [2] the target is bovine complement factor I. In words: biolayer interferometry. As to conditions: n=3; parent: 27 ± 6.
The target in assay [3] is bovine complement factor I (bovine (B. taurus)). In words: BLI; biotinylated bovine FI (150 nM) on streptavidin biosensors, PmSLP-1 as analyte at 0-1600 nM, Octet RED96, 30°C, PBS pH 7.4 with 0.01% Tween 20; steady-state analysis, one-site fit.
For assay [4] the target is unchanged. Put plainly: cryo-EM structure; PmSLP-1 and FI mixed 5:1, complex isolated on Superdex Increase 200 in PBS pH 7.4, 0.25 mg/mL on gold grids, 40° tilt; dimer of the complex, protomer refined to 3.5 Å.

In the case of “PmSLP-1^15 (PmSLP-1^15-318), surface lipoprotein of Pasteurella multocida strain 36950 E240A”, in assay [1], the response is -0.0015 AU.
What is called Kd is the equilibrium constant for the complex coming apart. For the substance “PmSLP-1^15 (PmSLP-1^15-318), surface lipoprotein of Pasteurella multocida strain 36950 D210A”, the response in assay [1] was 0.14 AU. Moreover, in assay [2], the dissociation constant Kd was determined as 272 nM.
Regarding “PmSLP-1^15 (PmSLP-1^15-318), surface lipoprotein of Pasteurella multocida strain 36950 E132R”, the response in assay [1] stood at 0.22 AU. Besides, the dissociation constant (Kd) in assay [2] worked out at 28 nM.
Substance “PmSLP-1^15 (PmSLP-1^15-318), surface lipoprotein of Pasteurella multocida strain 36950 K236E” had a response in assay [1] of 0.24 AU. The dissociation constant Kd in assay [2] is 33 nM.
In assay [1], “PmSLP-1^15 (PmSLP-1^15-318), surface lipoprotein of Pasteurella multocida strain 36950 R167A” showed a response of 0.18 AU. Besides, the dissociation constant Kd in assay [2] came to 107 nM.
“PmSLP-1^15 (PmSLP-1^15-318), surface lipoprotein of Pasteurella multocida strain 36950 D124R” yielded a response in assay [1] of 0.24 AU. Further, in assay [2], the Kd stood at 53 nM.
In assay [3], “PmSLP-1^95 (PmSLP-1^95-318 SERp) (domain or fragment)” showed a Kd of 39 nM.
With “PmSLP-1^15 (PmSLP-1^15-318), surface lipoprotein of Pasteurella multocida strain 36950 I133D”, the response in assay [1] came to 0.24 AU. For the same substance, the dissociation constant (Kd) in assay [2] came to 43 nM.
“PmSLP-1^15 (PmSLP-1^15-318), surface lipoprotein of Pasteurella multocida strain 36950 L127D”: in assay [1], the response amounted to 0.23 AU. Further, in assay [2], the equilibrium dissociation constant (Kd) was 85 nM.
As usually defined, the stoichiometry N is a count of units in the complex or per binding partner. The substance bovine complement factor I (enzyme) registered a stoichiometry N in assay [4] of 2.
The substance “PmSLP-1^15 (PmSLP-1^15-318), surface lipoprotein of Pasteurella multocida strain 36950 (domain or fragment)” registered a Kd in assay [3] of 27 nM.
In assay [1], “PmSLP-1^15 (PmSLP-1^15-318), surface lipoprotein of Pasteurella multocida strain 36950 D121A” came in with a response of 0.19 AU. For the same substance, the Kd in assay [2] came out at 117 nM.
